Data: patent publication US20240019424A1

Experiments:
[1] = target: biotinylated single chain human FcRn (beta-2-microglobulin-human FcRn fusion polypeptide with (GGGGS)4-peptidic linker and C-terminal His(10)-Avi-tag) (human) (UniProt P61769); assay: SPR, scFcRn on C1 chip, Interaction Map spot; 400 mM NaCl; intermolecular, first of two spots
[2] = target: biotinylated single chain human FcRn (beta-2-microglobulin-human FcRn fusion polypeptide with (GGGGS)4-peptidic linker and C-terminal His(10)-Avi-tag) (human) (UniProt P61769); assay: SPR, scFcRn on C1 chip, Interaction Map spot; 150 mM NaCl; intermolecular (FIG. 16 spot 2)
[3] = target: biotinylated single chain human FcRn (beta-2-microglobulin-human FcRn fusion polypeptide with (GGGGS)4-peptidic linker and C-terminal His(10)-Avi-tag) (human) (UniProt P61769); assay: SPR, scFcRn on C1 chip, Interaction Map spot; 400 mM NaCl; intramolecular
[4] = target: biotinylated single chain human FcRn (beta-2-microglobulin-human FcRn fusion polypeptide with (GGGGS)4-peptidic linker and C-terminal His(10)-Avi-tag) (human) (UniProt P61769); assay: SPR, scFcRn on C1 chip, Interaction Map spot; 150 mM NaCl; intramolecular (FIG. 16 spot 1)
[5] = target: biotinylated single chain human FcRn (beta-2-microglobulin-human FcRn fusion polypeptide with (GGGGS)4-peptidic linker and C-terminal His(10)-Avi-tag) (human) (UniProt P61769); assay: SPR, scFcRn on C1 chip, Interaction Map spot; 400 mM NaCl; intermolecular, second of two spots
[6] = target: biotinylated single chain human FcRn (beta-2-microglobulin-human FcRn fusion polypeptide with (GGGGS)4-peptidic linker and C-terminal His(10)-Avi-tag) (human) (UniProt P61769); assay: SPR, C1 chip, scFcRn about 80 RU, Interaction Map spot; 400 mM NaCl; intramolecular binding 1+2
[7] = target: biotinylated single chain human FcRn (beta-2-microglobulin-human FcRn fusion polypeptide with (GGGGS)4-peptidic linker and C-terminal His(10)-Avi-tag) (human) (UniProt P61769); assay: SPR, C1 chip, scFcRn about 80 RU, Interaction Map spot; 150 mM NaCl; intermolecular binding 1+1′
[8] = target: biotinylated single chain human FcRn (beta-2-microglobulin-human FcRn fusion polypeptide with (GGGGS)4-peptidic linker and C-terminal His(10)-Avi-tag) (human) (UniProt P61769); assay: SPR, C1 chip, scFcRn about 80 RU, Interaction Map spot; 400 mM NaCl; intramolecular binding 1+2+1+2
[9] = target: biotinylated single chain human FcRn (beta-2-microglobulin-human FcRn fusion polypeptide with (GGGGS)4-peptidic linker and C-terminal His(10)-Avi-tag) (human) (UniProt P61769); assay: SPR, C1 chip, scFcRn about 80 RU, Interaction Map spot; 150 mM NaCl; intramolecular binding 1+2
[10] = target: biotinylated single chain human FcRn (beta-2-microglobulin-human FcRn fusion polypeptide with (GGGGS)4-peptidic linker and C-terminal His(10)-Avi-tag) (human) (UniProt P61769); assay: SPR, C1 chip, scFcRn about 80 RU, Interaction Map spot; 400 mM NaCl; intermolecular binding 1+1′
[11] = target: biotinylated single chain human FcRn (beta-2-microglobulin-human FcRn fusion polypeptide with (GGGGS)4-peptidic linker and C-terminal His(10)-Avi-tag) (human) (UniProt P61769); assay: SPR, C1 chip, scFcRn about 80 RU, Interaction Map spot; 150 mM NaCl; intramolecular binding 1+2+1+2
[12] = target: biotinylated single chain human FcRn (beta-2-microglobulin-human FcRn fusion polypeptide with (GGGGS)4-peptidic linker and C-terminal His(10)-Avi-tag) (human) (UniProt P61769); assay: SPR, C1 chip, scFcRn about 80 RU, Interaction Map spot; 150 mM NaCl; intermolecular binding 1+2′
[13] = target: biotinylated single chain human FcRn (beta-2-microglobulin-human FcRn fusion polypeptide with (GGGGS)4-peptidic linker and C-terminal His(10)-Avi-tag) (human) (UniProt P61769); assay: SPR, scFcRn on C1 chip, Interaction Map spot; 400 mM NaCl; intermolecular
[14] = target: biotinylated single chain human FcRn (beta-2-microglobulin-human FcRn fusion polypeptide with (GGGGS)4-peptidic linker and C-terminal His(10)-Avi-tag) (human) (UniProt P61769); assay: SPR, C1 chip, scFcRn about 80 RU, Interaction Map spot; 400 mM NaCl and 20% (w/w) ethylene glycol; intermolecular binding 1+1′
[15] = target: biotinylated single chain human FcRn (beta-2-microglobulin-human FcRn fusion polypeptide with (GGGGS)4-peptidic linker and C-terminal His(10)-Avi-tag) (human) (UniProt P61769); assay: SPR, C1 chip, scFcRn about 80 RU, Interaction Map spot; 400 mM NaCl and 20% (w/w) ethylene glycol; intramolecular binding 1+2
[16] = target: biotinylated single chain human FcRn (beta-2-microglobulin-human FcRn fusion polypeptide with (GGGGS)4-peptidic linker and C-terminal His(10)-Avi-tag) (human) (UniProt P61769); assay: SPR, C1 chip, scFcRn about 80 RU, Interaction Map spot; 400 mM NaCl; intermolecular binding 1+2′
[17] = target: biotinylated single chain human FcRn (beta-2-microglobulin-human FcRn fusion polypeptide with (GGGGS)4-peptidic linker and C-terminal His(10)-Avi-tag) (human) (UniProt P61769); assay: SPR, C1 chip, scFcRn amine-coupled about 80 RU, antibody as analyte, Interaction Map spot; 150 mM NaCl; intermolecular (FIG. 16 spot 2)
[18] = target: biotinylated single chain human FcRn (beta-2-microglobulin-human FcRn fusion polypeptide with (GGGGS)4-peptidic linker and C-terminal His(10)-Avi-tag) (human) (UniProt P61769); assay: SPR, C1 chip, scFcRn amine-coupled about 80 RU, antibody as analyte, Interaction Map spot; 150 mM NaCl; intramolecular (FIG. 16 spot 1)
[19] = target: biotinylated single chain human FcRn (beta-2-microglobulin-human FcRn fusion polypeptide with (GGGGS)4-peptidic linker and C-terminal His(10)-Avi-tag) (human) (UniProt P61769); assay: SPR, C1 chip, scFcRn about 80 RU, Interaction Map spot; 400 mM NaCl; intermolecular
[20] = target: biotinylated single chain human FcRn (beta-2-microglobulin-human FcRn fusion polypeptide with (GGGGS)4-peptidic linker and C-terminal His(10)-Avi-tag) (human) (UniProt P61769); assay: SPR, C1 chip, scFcRn about 80 RU, Interaction Map spot; 400 mM NaCl; intramolecular

Sequence of biotinylated single chain human FcRn (beta-2-microglobulin-human FcRn fusion polypeptide with (GGGGS)4-peptidic linker and C-terminal His(10)-Avi-tag) (human) (P61769 other isoform, or with tags, fused parts or gaps limits assumed): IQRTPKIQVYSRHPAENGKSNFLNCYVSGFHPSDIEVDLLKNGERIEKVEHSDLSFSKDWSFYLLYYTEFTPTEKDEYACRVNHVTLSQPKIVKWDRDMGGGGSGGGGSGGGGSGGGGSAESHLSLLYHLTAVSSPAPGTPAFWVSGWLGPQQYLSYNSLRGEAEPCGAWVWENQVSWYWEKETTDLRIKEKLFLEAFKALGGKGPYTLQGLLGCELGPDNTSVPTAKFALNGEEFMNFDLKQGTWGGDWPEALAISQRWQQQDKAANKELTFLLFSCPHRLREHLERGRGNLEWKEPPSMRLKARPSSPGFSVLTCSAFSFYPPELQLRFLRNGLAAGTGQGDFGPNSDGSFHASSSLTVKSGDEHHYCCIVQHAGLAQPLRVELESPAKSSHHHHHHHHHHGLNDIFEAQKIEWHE

Row | Kd [2] | Kd [3] | Kd [4] | Kd [6] | Kd [7] | Kd [8] | Kd [9] | Kd [10] | Kd [11] | Kd [12] | further results | Substance
1 | 0.0104 µM | 0.325 µM | 0.391 µM |  |  |  |  |  |  |  | Kd [1]: 0.0043 µM; Kd [5]: 0.039 µM | asymmetric antibody with the mutations I253A/H310A/H435A in one Fc-region polypeptide and the mutations T307H/N434H in the respective other Fc-region polypeptide (from UniProt P01857 104-330; P01857 104-330)
2 |  |  |  | 0.156 µM | 0.071 µM | 0.00013 µM | 0.177 µM | 0.025 µM | 0.00012 µM | 0.003 µM |  | anti-digoxygenin Fabs connected to an IgG1 Fc-region with the mutations T307H/N434H in both Fc-region polypeptides (from UniProt P01857 104-330) (antibody)
3 | 0.0047 µM | 0.166 µM | 0.184 µM |  |  |  |  |  |  |  | Kd [13]: 0.0062 µM | asymmetric antibody with the mutations I253A/H310A/H435A in one Fc-region polypeptide and the mutations M252Y/S254T/T256E in the respective other Fc-region polypeptide (from UniProt P01857 104-330; P01857 104-330)
4 |  |  |  | 0.84 µM | 0.126 µM | 0.00033 µM | 0.382 µM | 0.1 µM | 0.00016 µM | 0.0057 µM | Kd [14]: 0.075 µM; Kd [15]: 1.14 µM; Kd [16]: 0.0048 µM | anti-digoxygenin Fabs connected to a wild-type IgG1 Fc-region (from UniProt P01857 104-330) (antibody)
5 |  |  |  |  |  |  |  |  |  |  | Kd [17]: 0.0205 µM; Kd [18]: 1.25 µM; Kd [19]: 0.06 µM; Kd [20]: 1.06 µM | anti-digoxygenin-Fabs added to the Fc-region with a single FcRn binding site (mutations I253A/H310A/H435A in one Fc-region polypeptide and wild-type in the respective other Fc-region polypeptide) (from UniProt P01857 104-330; P01857 104-330) (antibody)
6 |  |  |  | 0.092 µM |  | 0.0016 µM | 0.092 µM |  |  |  |  | anti-digoxygenin Fabs connected to an IgG1 Fc-region with the mutations M252Y/S254T/T256E in both Fc-region polypeptides (from UniProt P01857 104-330) (antibody)
